Data on three molecules can be found in patent US20110060580A1 (published 2011).

Sequences and labels used below:
B1: human LXRβ-LBD (liver X receptor beta ligand binding domain, amino acids 213-461 of Seq. Id. No. 1) (receptor)
chain: GEGEGVQLTAAQELMIQQLVAAQLQCNKRSFSDQPKVTPWPLGADPQSRDARQQRFAHFTELAIISVQEIVDFAKQVPGFLQLGREDQIALLKASTIEIMLLETARRYNHETECITFLKDFTYSKDDFHRAGLQVEFINPIFEFSRAMRRLGLDDAEYALLIAINIFSADRPNVQEPGRVEALQQPYVEALLSYTRIKRPQDQLRFPRMLMKLVSLRTLSSVHSEQVFALRLQDKKLPPLLSEIWDVHE
notes: The His tag was removed by thrombin before crystallization; Id; No. 1; Each crystal also held a small-molecule agonist; also called LXR-LBD; hLXRbeta213G-460E

The target of data set [1] is B1. The data set is described as follows: X-ray co-crystal structure (Example 1, space group P43). The procedure: (§1) Protein used for crystallization of LXRβ-LBD together with 2-(4-{[2-(3-Chloro-phenyl)-5-methyl-oxazol-4-ylmethyl]-ethyl-amino }-phenyl)-1,1,1,3,3,3-hexafluoro-propan-2-ol has been purified as described above. The protein was incubated with ligand in a 12-fold molar excess for 2 hours at room temperature. A short co-activator peptide ([…]) (Seq. Id. No. 3) from SRC-1 was added in 12-fold molar excess and incubation continued overnight at 4 ° C. Prior to crystallization experiments the protein was centrifuged at 20000× g. The crystallization droplets were set up at 22 ° C. by mixing 1.5 μl of protein solution with 0.5 μl reservoir solution in vapour diffusion hanging drop experiments. Crystals appeared out of 0.2 M (NH₄)₂SO₄, 25% PEG 3350 after 1 day and grew to final size of 0.15 mm×0.15 mm×0.05 mm within 2 days.
(§2) Crystals were harvested with paraffin oil as cryoprotectant and then flash frozen in a 100 K N2 stream. Diffraction images were collected at a temperature of 100 K at the beamline X06SA of the Swiss Light Source and processed with the programs DENZO and […] yielding data to a resolution of 3.2 Å. Standard crystallographic programs from the CCP4 software suite were used to determine the structure by molecular replacement using an in-house LXRβ-LBD structure as search model. Refinement and model building cycles were performed with REFMAC and MOLOC, respectively (Table 1).

Data set [2] concerns the molecule itself. The data set can be described thus: X-ray co-crystal structure (Example 1); homodimer. The procedure:
as §1, §2

Data set [3] has as its target B1. The data set is described as follows: X-ray co-crystal structure (Example 3, space group P1). The procedure:
Protein used for crystallization of LXRβ-LBD together with - (R,S)-Benzenesulfonyl-(6chloro-2,3,4,9-tetrahydro-1H-carbazol-2-yl)-fluoro-acetic acid methyl ester has been purified as described above. The protein was incubated with ligand in a 15-fold molar excess for 2 hours at room temperature. A short co-activator peptide ([…]) (Seq. Id. No. 4) from SRC-1 was added in 3-fold molar excess and incubation continued overnight at 4 ° C. Prior to crystallization experiments the protein was concentrated to 12 mg/ml and centrifuged at 20000 ×g. The crystallization droplet was set up at room temperature by mixing 1.5 μl of protein solution with 0.5 μl reservoir solution in vapour diffusion hanging drop experiments. Crystals appeared out of 0.1 M Bis-Tris pH 5.5, 0.2 M (NH⁴⁾²SO₄, 25% PEG 3350 after 1 day and grew to final size of 0.2 mm×0.1 mm×0.05 mm within 2 days.
Crystals were harvested with paraffin oil as cryoprotectant and then flash frozen in a 100 K N₂ stream. Diffraction images were collected at a temperature of 100 K at the beamline X06SA of the Swiss Light Source and processed with the programs DENZO and […] yielding data to a resolution of 2.3 Å. Standard crystallographic programs from the CCP4 software suite were used to determine the structure by molecular replacement using an in-house LXR-LBD structure as search model. […]

For KDHQLLRYLLDKD (13-residue peptide from SRC-1) [short co-activator peptide (KDHQLLRYLLDKD) (Seq. Id. No. 3) from SRC-1], in data set [1], the binding result is on record as “binds”.
In the case of B1, the binding result in data set [2] was “binds”.
As to ERHKILHRLLQEG (13-residue peptide from SRC-1) [short co-activator peptide (ERHKILHRLLQEG) (Seq. Id. No. 4) from SRC-1], the binding result in data set [3] is reported as “binds”.
